Test results as given in patent US20120070446A1 (AstraZeneca / MedImmune, published 2012).

B1: palivizumab (antibody, V domains shown)
VH: QVTLRESGPALVKPTQTLTLTCTFSGFSLSTSGMSVGWIRQPPGKALEWLADIWWDDKKDYNPSLKSRLTISKDTSKNQVVLKVTNMDPADTATYYCARSMITNWYFDVWGAGTTVTVSS
VL: DIQMTQSPSTLSASVGDRVTITCKCQLSVGYMHWYQQKPGKAPKLLIYDTSKLASGVPSRFSGSGSGTEFTLTISSLQPDDFATYYCFQGSGYPFTFGGGTKLEIK
B2: AM22 (recombinant AM22 mAb, human IgG1/Kappa) (antibody, V domains shown)
VH: QVQLVQSGAEVKKPGATVKVSCKISGHTLIKLSIHWVRQAPGKGLEWMGGYEGEVDEIFYAQKFQHRLTVIADTATDTVYMELGRLTSDDTAVYFCGTLGVTVTEAGLGIDDYWGQGTLVTVSS
VL: EIVLTQSPGTLSLSPGERATLSCRASQIVSRNHLAWYQQKPGQAPRLLIFGASSRATGIPVRFSGSGSGTDFTLTINGLAPEDFAVYYCLSSDSSIFTFGPGTKVDFK
notes: also called AM22 antibody; AM22 monoclonal antibody

How the values were obtained:
[1] = target: F protein of RSV A2 virus (on virus particles, neutralization assay) (Respiratory Syncytial Virus A2, UniProt P03420 26-574); test: cell-based or functional assay
[2] = target: T1, HIS-tagged recombinant F protein from RSV Long strain (Respiratory Syncytial Virus Long strain, UniProt P12568 26-524); test: direct ELISA, HIS-tagged F on Ni-NTA HisSorp plates
T1 construct: also called recombinant HIS tagged F protein; recombinant RSV F Long strain containing a poly HIS tag; not shown: poly HIS tag
T1 sequence (P12568 26-524): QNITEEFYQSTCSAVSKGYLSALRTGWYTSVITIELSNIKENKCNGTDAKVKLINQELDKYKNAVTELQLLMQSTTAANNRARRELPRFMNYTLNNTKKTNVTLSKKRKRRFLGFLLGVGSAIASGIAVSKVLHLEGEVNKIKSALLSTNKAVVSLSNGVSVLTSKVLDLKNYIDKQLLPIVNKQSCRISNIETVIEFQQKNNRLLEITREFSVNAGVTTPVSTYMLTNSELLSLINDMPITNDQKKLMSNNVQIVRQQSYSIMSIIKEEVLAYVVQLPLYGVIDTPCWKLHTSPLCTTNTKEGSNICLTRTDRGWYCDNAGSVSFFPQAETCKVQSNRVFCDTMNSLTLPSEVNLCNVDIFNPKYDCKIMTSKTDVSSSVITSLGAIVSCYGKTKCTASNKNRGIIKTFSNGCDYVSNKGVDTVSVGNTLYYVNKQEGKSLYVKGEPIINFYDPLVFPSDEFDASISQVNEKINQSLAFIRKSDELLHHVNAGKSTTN

Binder | IC50 (ng/ml), RSV neutralizing activity, TCID50 culture assay on HEp2 cells with the RSV A2 virus [1] | binding result [2]
B1 | 152 ng/mL | 
B2 |  | no binding
